B1: ZNF649 (parent)
chain: YHTGKTPFVCPECGQPCSQKSGLI

Variants of: B1
Assay: protein stability index of a GFP-peptide fusion (GPS, HEK-293T) (PSI 1-6); higher = more stable
Settings: c terminus: a fixed tail appended
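Further: lentivirally expressed fusions sorted by FACS into six bins by GFP to DsRed ratio, PSI derived from sequencing read proportions per bin multiplied by bin number.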

Variant	protein stability index
YHTGKTPFVCPECGQPHSQKSGLI [C17H]	1.73
YHTGKTPFVCPECGQPMSQKSGLI [C17M]	2.14
YHTGKTPFVCPECGQPASQKSGLI [C17A]	3.38
YHTGKTPFVCPECGQPLSQKSGLI [C17L]	1.66
YHTGKTPFVCPECGQPVSQKSGLI [C17V]	2.26
YHTGKTPFVCPECGQPESQKSGLI [C17E]	1.48
YHTGKTPFVCPECGQPKSQKSGLI [C17K]	3.83
YHTGKTPFVCPECGQPDSQKSGLI [C17D]	2.63
YHTGKTPFVCPECGQPGSQKSGLI [C17G]	2.94
YHTGKTPFVCPECGQPNSQKSGLI [C17N]	2.76
YHTGKTPFVCPECGQPSSQKSGLI [C17S]	2.81
YHTGKTPFVCPECGQPFSQKSGLI [C17F]	1.59
YHTGKTPFVCPECGQPTSQKSGLI [C17T]	2.04
YHTGKTPFVCPECGQPISQKSGLI [C17I]	2.01
YHTGKTPFVCPECGQPQSQKSGLI [C17Q]	1.96
YHTGKTPFVCPECGQPPSQKSGLI [C17P]	2.54
YHTGKTPFVCPECGQPYSQKSGLI [C17Y]	2.35
YHTGKTPFVCPECGQPCCQKSGLI [S18C]	2.08
YHTGKTPFVCPECGQPCIQKSGLI [S18I]	2.47
YHTGKTPFVCPECGQPCGQKSGLI [S18G]	1.43
YHTGKTPFVCPECGQPCFQKSGLI [S18F]	2.27
YHTGKTPFVCPECGQPCEQKSGLI [S18E]	3.48
YHTGKTPFVCPECGQPCYQKSGLI [S18Y]	2.4
YHTGKTPFVCPECGQPCMQKSGLI [S18M]	3.02

Variant	protein stability index
YHTGKTPFVCPECGQPCQQKSGLI [S18Q]	1.49
YHTGKTPFVCPECGQPCVQKSGLI [S18V]	1.44
YHTGKTPFVCPECGQPCKQKSGLI [S18K]	1.46
YHTGKTPFVCPECGQPCTQKSGLI [S18T]	2.5
YHTGKTPFVCPECGQPCNQKSGLI [S18N]	1.22
YHTGKTPFVCPECGQPCAQKSGLI [S18A]	2.31
YHTGKTPFVCPECGQPCHQKSGLI [S18H]	1.26
YHTGKTPFVCPECGQPCDQKSGLI [S18D]	2.25
YHTGKTPFVCPECGQPCWQKSGLI [S18W]	1.82
YHTGKTPFVCPECGQPCLQKSGLI [S18L]	1.85
YHTGKTPFVCPECGQPCPQKSGLI [S18P]	2.26
YHTGKTPFVCPECRQPCSQKSGLI [G14R]	3.6
YHTGKTPFVCPECCQPCSQKSGLI [G14C]	2.12
YHTGKTPFVCPECSQPCSQKSGLI [G14S]	1.72
YHTGKTPFVCPECQQPCSQKSGLI [G14Q]	2.31
YHTGKTPFVCPECAQPCSQKSGLI [G14A]	2.16
YHTGKTPFVCPECKQPCSQKSGLI [G14K]	2.76
YHTGKTPFVCPECTQPCSQKSGLI [G14T]	3.65
YHTGKTPFVCPECYQPCSQKSGLI [G14Y]	2.27
YHTGKTPFVCPECEQPCSQKSGLI [G14E]	1.95
YHTGKTPFVCPECFQPCSQKSGLI [G14F]	1.94
YHTGKTPFVCPECVQPCSQKSGLI [G14V]	2.06
YHTGKTPFVCPECMQPCSQKSGLI [G14M]	2.05
YHTGKTPFVCPECWQPCSQKSGLI [G14W]	1.61

Variant	protein stability index
YHTGKTPFVCPECPQPCSQKSGLI [G14P]	2.54
YHTGKTPFVCPECIQPCSQKSGLI [G14I]	1.79
YHTGKTPFVCPECGQPCSQMSGLI [K20M]	1.53
YHTGKTPFVCPECGQPCSQLSGLI [K20L]	1.37
YHTGKTPFVCPECGQPCSQASGLI [K20A]	2.05
YHTGKTPFVCPECGQPCSQHSGLI [K20H]	2.43
YHTGKTPFVCPECGQPCSQCSGLI [K20C]	4.04
YHTGKTPFVCPECGQPCSQISGLI [K20I]	3.23
YHTGKTPFVCPECGQPCSQESGLI [K20E]	1.35
YHTGKTPFVCPECGQPCSQDSGLI [K20D]	1.72
YHTGKTPFVCPEEGQPCSQKSGLI [C13E]	2.87
YHTGKTPFVCPEQGQPCSQKSGLI [C13Q]	2.54
YHTGKTPFVCPEFGQPCSQKSGLI [C13F]	2.8
YHTGKTPFVCPERGQPCSQKSGLI [C13R]	2.37
YHTGKTPFVCPEHGQPCSQKSGLI [C13H]	3
YHTGKTPFVCPEPGQPCSQKSGLI [C13P]	2.27
YHTGKTPFVCPEKGQPCSQKSGLI [C13K]	3.33
YHTGKTPFVCPEAGQPCSQKSGLI [C13A]	3.53
YHTGKTPFVCPESGQPCSQKSGLI [C13S]	1.62
YHTGKTPFVCPEDGQPCSQKSGLI [C13D]	2.6
YHTGKTPFVCPEMGQPCSQKSGLI [C13M]	2.98
YHTGKTPFVCPEYGQPCSQKSGLI [C13Y]	3.41
YHTGKTPFVCPEIGQPCSQKSGLI [C13I]	2.35
YHTGKTPFVCPENGQPCSQKSGLI [C13N]	1.83

Variant	protein stability index
YHTGKTPFVCPETGQPCSQKSGLI [C13T]	2.99
YHTGKTPFVCPEVGQPCSQKSGLI [C13V]	2.13
YHTGKTPFFCPECGQPCSQKSGLI [V9F]	3.17
YHTGKTPFICPECGQPCSQKSGLI [V9I]	2.38
YHTGKTPFTCPECGQPCSQKSGLI [V9T]	2.43
YHTGKTPFRCPECGQPCSQKSGLI [V9R]	2.24
YHTGKTPFWCPECGQPCSQKSGLI [V9W]	2.49
YHTGKTPFHCPECGQPCSQKSGLI [V9H]	2.47
YHTGKTPFLCPECGQPCSQKSGLI [V9L]	2.99
YHTGKTPFGCPECGQPCSQKSGLI [V9G]	1.79
YHTGKTPFKCPECGQPCSQKSGLI [V9K]	1.58
YHTGKTPFQCPECGQPCSQKSGLI [V9Q]	2.02
YHTGKTPFECPECGQPCSQKSGLI [V9E]	1.61
YHTGKTPFNCPECGQPCSQKSGLI [V9N]	3
YHTGKTPFYCPECGQPCSQKSGLI [V9Y]	3.65
YHTGKTPFVYPECGQPCSQKSGLI [C10Y]	2.29
YHTGKTPFVGPECGQPCSQKSGLI [C10G]	2.31
YHTGKTPFVHPECGQPCSQKSGLI [C10H]	1
YHTGKTPFVKPECGQPCSQKSGLI [C10K]	1.76
YHTGKTPFVWPECGQPCSQKSGLI [C10W]	2.79
YHTGKTPFVDPECGQPCSQKSGLI [C10D]	1.61
YHTGKTPFVVPECGQPCSQKSGLI [C10V]	1.81
YHTGKTPFVQPECGQPCSQKSGLI [C10Q]	1.27
YHTGKTPFVIPECGQPCSQKSGLI [C10I]	2.33

Variant	protein stability index
YHTGKTPFVFPECGQPCSQKSGLI [C10F]	1.98
YHTGKTPFVEPECGQPCSQKSGLI [C10E]	1.33
YHTGKTPFVTPECGQPCSQKSGLI [C10T]	2.37
YHTGKTPFVMPECGQPCSQKSGLI [C10M]	1.53
YHTGKTPFVSPECGQPCSQKSGLI [C10S]	2.85
YHTGKTPFVNPECGQPCSQKSGLI [C10N]	2.23
YHTGKTPFVLPECGQPCSQKSGLI [C10L]	2.06
YHTGKTPFVPPECGQPCSQKSGLI [C10P]	1.54
YHTGKTPFVRPECGQPCSQKSGLI [C10R]	1.75
YHTGKTPFVCPECGQQCSQKSGLI [P16Q]	2.37
YHTGKTPFVCPECGQVCSQKSGLI [P16V]	2.44
YHTGKTPFVCPECGQLCSQKSGLI [P16L]	2.82
YHTGKTPFVCPECGQECSQKSGLI [P16E]	2.79
YHTGKTPFVCPECGQTCSQKSGLI [P16T]	1.34
YHTGKTPFVCPECGQFCSQKSGLI [P16F]	2.1
YHTGKTPFVCPECGQKCSQKSGLI [P16K]	1.98
YHTGKTPFVCPECGQYCSQKSGLI [P16Y]	1.04
YHTGKTPFVCPECGQMCSQKSGLI [P16M]	1.86
YHTGKTPFVCPECGQHCSQKSGLI [P16H]	2.65
YHTGKTPFVCPECGQACSQKSGLI [P16A]	2.79
YHTGKTPFVCPECGQDCSQKSGLI [P16D]	1.91
YHTGKTPFVCPECGQSCSQKSGLI [P16S]	1.9
YHTGKTPFVCPECGQCCSQKSGLI [P16C]	4.29
YHTGKTPFVCPECGQRCSQKSGLI [P16R]	1.54

Variant	protein stability index
YHTGKTPFVCPECGQGCSQKSGLI [P16G]	2.99
YHTGKTPFVCPECGQICSQKSGLI [P16I]	1.87
YHTGKTPFVCPECGQNCSQKSGLI [P16N]	1.23
YHTGKTPFVCPECGNPCSQKSGLI [Q15N]	3.41
YHTGKTPFVCPECGYPCSQKSGLI [Q15Y]	1.75
YHTGKTPFVCPECGMPCSQKSGLI [Q15M]	2.16
YHTGKTPFVCPECGTPCSQKSGLI [Q15T]	2.35
YHTGKTPFVCPECGEPCSQKSGLI [Q15E]	2.65
YHTGKTPFVCPECGVPCSQKSGLI [Q15V]	1.5
YHTGKTPFVCPECGKPCSQKSGLI [Q15K]	2.35
YHTGKTPFVCPECGWPCSQKSGLI [Q15W]	1.83
YHTGKTPFVCPECGGPCSQKSGLI [Q15G]	1.45
YHTGKTPFVCPECGSPCSQKSGLI [Q15S]	2.21
YHTGKTPFVCPECGCPCSQKSGLI [Q15C]	1.89
YHTGKTPFVCPECGRPCSQKSGLI [Q15R]	1.63
YHTGKTPFVCPECGHPCSQKSGLI [Q15H]	2.23
YHTGKTPFVCPECGIPCSQKSGLI [Q15I]	1.62
YHTGKTPFVCPECGFPCSQKSGLI [Q15F]	3.01
YHTGKTPFVCPECGQPCSSKSGLI [Q19S]	2.96
YHTGKTPFVCPECGQPCSTKSGLI [Q19T]	2.81
YHTGKTPFVCPECGQPCSMKSGLI [Q19M]	2.49
YHTGKTPFVCPECGQPCSKKSGLI [Q19K]	1.29
YHTGKTPFVCPECGQPCSNKSGLI [Q19N]	1.59
YHTGKTPFVCPECGQPCSRKSGLI [Q19R]	2.27

Variant	protein stability index
YHTGKTPFVCPECGQPCSAKSGLI [Q19A]	1.58
YHTGKTPFVCPECGQPCSGKSGLI [Q19G]	1.49
YHTGKTPFVCPECGQPCSWKSGLI [Q19W]	1.23
YHTGKTPFVCPECGQPCSHKSGLI [Q19H]	2.2
YHTGKTPFVCPECGQPCSEKSGLI [Q19E]	1.71
YHTGKTPFVCPECGQPCSIKSGLI [Q19I]	1.57
YHTGKTPFVCPECGQPCSCKSGLI [Q19C]	2.69
YHTGKTPFVCPECGQPCSPKSGLI [Q19P]	2.04
YHTGKTPFVCPECGQPCSFKSGLI [Q19F]	2
YHTGKTPFVCPECGQPCSDKSGLI [Q19D]	2.37
YHTGKTPFVCVECGQPCSQKSGLI [P11V]	2.33
YHTGKTPFVCNECGQPCSQKSGLI [P11N]	1.62
YHTGKTPFVCKECGQPCSQKSGLI [P11K]	2.46
YHTGKTPFVCFECGQPCSQKSGLI [P11F]	2.44
YHTGKTPFVCQECGQPCSQKSGLI [P11Q]	1.57
YHTGKTPFVCDECGQPCSQKSGLI [P11D]	1.4
YHTGKTPFVCHECGQPCSQKSGLI [P11H]	2.16
YHTGKTPFVCIECGQPCSQKSGLI [P11I]	1.69
YHTGKTPFVCLECGQPCSQKSGLI [P11L]	1.71
YHTGKTPFVCSECGQPCSQKSGLI [P11S]	1.93
YHTGKTPFVCGECGQPCSQKSGLI [P11G]	1.43
YHTGKTPFVCTECGQPCSQKSGLI [P11T]	2.49
YHTGKTPFVCCECGQPCSQKSGLI [P11C]	1.65
YHTGKTPFVCMECGQPCSQKSGLI [P11M]	2.32

Variant	protein stability index
YHTGKTPFVCAECGQPCSQKSGLI [P11A]	2.04
YHTGKTPFVCEECGQPCSQKSGLI [P11E]	1.61
YHTGKTPFVCRECGQPCSQKSGLI [P11R]	1.79
YHTGKTPFVCPHCGQPCSQKSGLI [E12H]	1.54
YHTGKTPFVCPFCGQPCSQKSGLI [E12F]	2.31
YHTGKTPFVCPTCGQPCSQKSGLI [E12T]	2.07
YHTGKTPFVCPRCGQPCSQKSGLI [E12R]	2.32
YHTGKTPFVCPVCGQPCSQKSGLI [E12V]	2.22
YHTGKTPFVCPWCGQPCSQKSGLI [E12W]	2.06
YHTGKTPFVCPLCGQPCSQKSGLI [E12L]	2.16
YHTGKTPFVCPICGQPCSQKSGLI [E12I]	1.91
YHTGKTPFVCPDCGQPCSQKSGLI [E12D]	3.08
YHTGKTPFVCPYCGQPCSQKSGLI [E12Y]	2.26
YHTGKTPFVCPSCGQPCSQKSGLI [E12S]	2.11
YHTGKTPFVCPNCGQPCSQKSGLI [E12N]	1.53
YHTGKTPFVCPKCGQPCSQKSGLI [E12K]	2.35
YHTGKTPFVCPGCGQPCSQKSGLI [E12G]	3.37
YHTGKTPFVCPQCGQPCSQKSGLI [E12Q]	1.9
YHTGKTPFVCPACGQPCSQKSGLI [E12A]	1.96
YHTGKTPFVCPMCGQPCSQKSGLI [E12M]	1.23
